From the supplement of paper PMC9112550, “Optimization of the antimicrobial peptide Bac7 by deep mutational scanning” (BMC Biology, 2022)

Test system: Escherichia coli TOP10
Assay: shrunken log2 fold change of peptide-encoding DNA abundance (4.5 h post-induction vs induction); higher = less antimicrobial activity (less host growth inhibition)
Conditions: time post-induction: 4.5 h; library: site-saturation at positions 5, 18, 19, 20
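Note: peptides expressed intracellularly from a pBAD plasmid library in pooled LB shake-flask culture, induced with 0.3% L-arabinose, DNA abundance read by NGS, three biological replicates, DESeq2 with apeglm shrinkage.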

## RRIRTRPPRLPRPRPRPFKQPRP
  shrunken log2 fold change: 0.0538

## RRIRCRPPRLPRPRPRPRYDPRP
  shrunken log2 fold change: -0.596

## RRIRLRPPRLPRPRPRPFLFPRP
  shrunken log2 fold change: -0.34

## RRIRYRPPRLPRPRPRPACFPRP
  shrunken log2 fold change: -0.166

## RRIRWRPPRLPRPRPRPNNMPRP
  shrunken log2 fold change: -0.345

## RRIRPRPPRLPRPRPRPLSEPRP
  shrunken log2 fold change: 0.126

## RRIRDRPPRLPRPRPRPSYHPRP
  shrunken log2 fold change: -0.835

## RRIRARPPRLPRPRPRPLFEPRP
  shrunken log2 fold change: 0.629

## RRIRKRPPRLPRPRPRPYDSPRP
  shrunken log2 fold change: 0.0392

## RRIRVRPPRLPRPRPRPVSMPRP
  shrunken log2 fold change: -0.066

## RRIRTRPPRLPRPRPRPMCAPRP
  shrunken log2 fold change: -0.0676

## RRIRNRPPRLPRPRPRPKWFPRP
  shrunken log2 fold change: 0.00131

## RRIRIRPPRLPRPRPRPAIFPRP
  shrunken log2 fold change: -0.102

## RRIRDRPPRLPRPRPRPSAQPRP
  shrunken log2 fold change: 0.469

## RRIRPRPPRLPRPRPRPSPYPRP
  shrunken log2 fold change: -0.461

## RRIRMRPPRLPRPRPRPPFIPRP
  shrunken log2 fold change: 0.082

## RRIRGRPPRLPRPRPRPQHDPRP
  shrunken log2 fold change: -0.000778

## RRIRTRPPRLPRPRPRPHCCPRP
  shrunken log2 fold change: 0.142

## RRIRHRPPRLPRPRPRPCVIPRP
  shrunken log2 fold change: -0.0839

## RRIRMRPPRLPRPRPRPLFAPRP
  shrunken log2 fold change: 0.556

## RRIRQRPPRLPRPRPRPWRQPRP
  shrunken log2 fold change: 0.029

## RRIRHRPPRLPRPRPRPDVYPRP
  shrunken log2 fold change: 0.0592

## RRIRMRPPRLPRPRPRPYTRPRP
  shrunken log2 fold change: -0.013

## RRIRTRPPRLPRPRPRPVEVPRP
  shrunken log2 fold change: -0.0848

## RRIRYRPPRLPRPRPRPSLWPRP
  shrunken log2 fold change: -0.0532

## RRIRQRPPRLPRPRPRPHPSPRP
  shrunken log2 fold change: -0.462

## RRIRFRPPRLPRPRPRPRNWPRP
  shrunken log2 fold change: 0.19

## RRIRGRPPRLPRPRPRPNLGPRP
  shrunken log2 fold change: 0.191

## RRIRWRPPRLPRPRPRPLRWPRP
  shrunken log2 fold change: 1.08

## RRIRDRPPRLPRPRPRPFFNPRP
  shrunken log2 fold change: -0.156

## RRIRFRPPRLPRPRPRPTQYPRP
  shrunken log2 fold change: -0.261

## RRIRHRPPRLPRPRPRPGPGPRP
  shrunken log2 fold change: 0.282

## RRIRMRPPRLPRPRPRPMQYPRP
  shrunken log2 fold change: -0.315

## RRIRRRPPRLPRPRPRPRFPPRP
  shrunken log2 fold change: 0.676

## RRIRSRPPRLPRPRPRPDGEPRP
  shrunken log2 fold change: 0.0597

## RRIRPRPPRLPRPRPRPVWWPRP
  shrunken log2 fold change: 0.232

## RRIRERPPRLPRPRPRPCWDPRP
  shrunken log2 fold change: -0.00421

## RRIRLRPPRLPRPRPRPLFKPRP
  shrunken log2 fold change: -0.188

## RRIRNRPPRLPRPRPRPQKVPRP
  shrunken log2 fold change: 0.007

## RRIRCRPPRLPRPRPRPTWFPRP
  shrunken log2 fold change: 0.141

## RRIRWRPPRLPRPRPRPMMDPRP
  shrunken log2 fold change: 0.000475

## RRIRWRPPRLPRPRPRPQGPPRP
  shrunken log2 fold change: 1.32

## RRIRIRPPRLPRPRPRPVTCPRP
  shrunken log2 fold change: -0.255

## RRIRTRPPRLPRPRPRPPDNPRP
  shrunken log2 fold change: -0.0234

## RRIRERPPRLPRPRPRPGMMPRP
  shrunken log2 fold change: -0.235

## RRIRERPPRLPRPRPRPVNSPRP
  shrunken log2 fold change: 0.0303

## RRIRPRPPRLPRPRPRPMMLPRP
  shrunken log2 fold change: -0.143

## RRIRERPPRLPRPRPRPPLWPRP
  shrunken log2 fold change: 0.779

## RRIRNRPPRLPRPRPRPMFLPRP
  shrunken log2 fold change: -0.241

## RRIRHRPPRLPRPRPRPEMWPRP
  shrunken log2 fold change: 0.263

## RRIRPRPPRLPRPRPRPSLFPRP
  shrunken log2 fold change: -0.344

## RRIRNRPPRLPRPRPRPFKDPRP
  shrunken log2 fold change: -0.327

## RRIRPRPPRLPRPRPRPYLMPRP
  shrunken log2 fold change: -0.58

## RRIRHRPPRLPRPRPRPFSEPRP
  shrunken log2 fold change: -0.591

## RRIRTRPPRLPRPRPRPSGYPRP
  shrunken log2 fold change: -0.256

## RRIRQRPPRLPRPRPRPFALPRP
  shrunken log2 fold change: -0.103

## RRIRRRPPRLPRPRPRPAHGPRP
  shrunken log2 fold change: 0.279

## RRIRWRPPRLPRPRPRPGGWPRP
  shrunken log2 fold change: 0.851

## RRIRRRPPRLPRPRPRPWAMPRP
  shrunken log2 fold change: -0.136

## RRIRERPPRLPRPRPRPEHRPRP
  shrunken log2 fold change: -0.0185

## RRIRVRPPRLPRPRPRPSFWPRP
  shrunken log2 fold change: -0.0205

## RRIRGRPPRLPRPRPRPEVRPRP
  shrunken log2 fold change: 0.919

## RRIRYRPPRLPRPRPRPVAFPRP
  shrunken log2 fold change: -0.717

## RRIRFRPPRLPRPRPRPPLDPRP
  shrunken log2 fold change: 0.461

## RRIRYRPPRLPRPRPRPILGPRP
  shrunken log2 fold change: -0.00192

## RRIRYRPPRLPRPRPRPWDFPRP
  shrunken log2 fold change: -0.0206

## RRIRRRPPRLPRPRPRPVPGPRP
  shrunken log2 fold change: 0.402

## RRIRGRPPRLPRPRPRPAPTPRP
  shrunken log2 fold change: 1.2

## RRIRQRPPRLPRPRPRPSRCPRP
  shrunken log2 fold change: -0.177

## RRIRSRPPRLPRPRPRPQWTPRP
  shrunken log2 fold change: -0.0105

## RRIRLRPPRLPRPRPRPIAIPRP
  shrunken log2 fold change: 0.12

## RRIRHRPPRLPRPRPRPHHSPRP
  shrunken log2 fold change: -0.147

## RRIRPRPPRLPRPRPRPVWMPRP
  shrunken log2 fold change: 0.136

## RRIRWRPPRLPRPRPRPQDIPRP
  shrunken log2 fold change: -0.352

## RRIRTRPPRLPRPRPRPRWTPRP
  shrunken log2 fold change: -0.0339

## RRIRIRPPRLPRPRPRPSQHPRP
  shrunken log2 fold change: -0.71

## RRIRPRPPRLPRPRPRPLHEPRP
  shrunken log2 fold change: 0.236

## RRIRQRPPRLPRPRPRPRMDPRP
  shrunken log2 fold change: -0.0734

## RRIRYRPPRLPRPRPRPQKFPRP
  shrunken log2 fold change: -0.0224

## RRIRLRPPRLPRPRPRPENHPRP
  shrunken log2 fold change: -0.126

## RRIRTRPPRLPRPRPRPKDHPRP
  shrunken log2 fold change: -0.156

## RRIRCRPPRLPRPRPRPIHSPRP
  shrunken log2 fold change: -0.221

## RRIRRRPPRLPRPRPRPLNAPRP
  shrunken log2 fold change: 0.257

## RRIRLRPPRLPRPRPRPHSKPRP
  shrunken log2 fold change: -0.129

## RRIRTRPPRLPRPRPRPKPLPRP
  shrunken log2 fold change: -0.0401

## RRIRHRPPRLPRPRPRPRKIPRP
  shrunken log2 fold change: 0.051

## RRIRYRPPRLPRPRPRPRNGPRP
  shrunken log2 fold change: 0.0466

## RRIRTRPPRLPRPRPRPNYTPRP
  shrunken log2 fold change: -0.753

## RRIRLRPPRLPRPRPRPCTFPRP
  shrunken log2 fold change: -0.0569

## RRIRRRPPRLPRPRPRPHEEPRP
  shrunken log2 fold change: 0.0957

## RRIRGRPPRLPRPRPRPAVTPRP
  shrunken log2 fold change: 0.688

## RRIRKRPPRLPRPRPRPLRWPRP
  shrunken log2 fold change: 1.37

## RRIRPRPPRLPRPRPRPNNMPRP
  shrunken log2 fold change: -0.412

## RRIRFRPPRLPRPRPRPEVYPRP
  shrunken log2 fold change: 0.000414

## RRIRWRPPRLPRPRPRPMNVPRP
  shrunken log2 fold change: 0.0542

## RRIRMRPPRLPRPRPRPASRPRP
  shrunken log2 fold change: 0.201

## RRIRDRPPRLPRPRPRPQTYPRP
  shrunken log2 fold change: -0.24

## RRIRDRPPRLPRPRPRPHQNPRP
  shrunken log2 fold change: -0.303

## RRIRERPPRLPRPRPRPSFVPRP
  shrunken log2 fold change: -0.588

## RRIRTRPPRLPRPRPRPCPDPRP
  shrunken log2 fold change: -0.283

## RRIRERPPRLPRPRPRPTCFPRP
  shrunken log2 fold change: -0.133

## RRIRERPPRLPRPRPRPLCAPRP
  shrunken log2 fold change: -0.0485

## RRIRQRPPRLPRPRPRPDLLPRP
  shrunken log2 fold change: 0.126

## RRIRFRPPRLPRPRPRPPFKPRP
  shrunken log2 fold change: -0.183

## RRIRARPPRLPRPRPRPTCNPRP
  shrunken log2 fold change: 0.327

## RRIRWRPPRLPRPRPRPYTLPRP
  shrunken log2 fold change: -0.681

## RRIRFRPPRLPRPRPRPNIPPRP
  shrunken log2 fold change: -0.67

## RRIRVRPPRLPRPRPRPHGAPRP
  shrunken log2 fold change: -0.0881

## RRIRERPPRLPRPRPRPTSQPRP
  shrunken log2 fold change: -0.235

## RRIRTRPPRLPRPRPRPHPLPRP
  shrunken log2 fold change: -0.503

## RRIRDRPPRLPRPRPRPTTRPRP
  shrunken log2 fold change: 0.542

## RRIRPRPPRLPRPRPRPYWIPRP
  shrunken log2 fold change: -0.509

## RRIRTRPPRLPRPRPRPQYCPRP
  shrunken log2 fold change: -0.0968

## RRIRQRPPRLPRPRPRPGDKPRP
  shrunken log2 fold change: -0.187

## RRIRQRPPRLPRPRPRPWDTPRP
  shrunken log2 fold change: 0.14

## RRIRLRPPRLPRPRPRPAEDPRP
  shrunken log2 fold change: -0.00769

## RRIRQRPPRLPRPRPRPSMWPRP
  shrunken log2 fold change: 0.0422

## RRIRHRPPRLPRPRPRPEKPPRP
  shrunken log2 fold change: -0.01

## RRIRYRPPRLPRPRPRPHWNPRP
  shrunken log2 fold change: -0.799

## RRIRPRPPRLPRPRPRPTKCPRP
  shrunken log2 fold change: -0.0849

## RRIRMRPPRLPRPRPRPKYIPRP
  shrunken log2 fold change: -0.161

## RRIRPRPPRLPRPRPRPWFVPRP
  shrunken log2 fold change: -0.25

## RRIRGRPPRLPRPRPRPGRHPRP
  shrunken log2 fold change: 0.314

## RRIRYRPPRLPRPRPRPGFEPRP
  shrunken log2 fold change: -0.127

## RRIRTRPPRLPRPRPRPGDMPRP
  shrunken log2 fold change: 1.73

## RRIRVRPPRLPRPRPRPHQIPRP
  shrunken log2 fold change: 0.12

## RRIRGRPPRLPRPRPRPENLPRP
  shrunken log2 fold change: -0.0405

## RRIRPRPPRLPRPRPRPGWLPRP
  shrunken log2 fold change: 0.468

## RRIRGRPPRLPRPRPRPQREPRP
  shrunken log2 fold change: 0.225

## RRIRCRPPRLPRPRPRPNYPPRP
  shrunken log2 fold change: -0.427

## RRIRQRPPRLPRPRPRPLLCPRP
  shrunken log2 fold change: 0.126

## RRIRERPPRLPRPRPRPKLKPRP
  shrunken log2 fold change: -0.387

## RRIRKRPPRLPRPRPRPNECPRP
  shrunken log2 fold change: 0.157

## RRIRIRPPRLPRPRPRPVCHPRP
  shrunken log2 fold change: -0.179

## RRIRERPPRLPRPRPRPDAQPRP
  shrunken log2 fold change: 0.154

## RRIRTRPPRLPRPRPRPGIIPRP
  shrunken log2 fold change: 0.0136

## RRIRTRPPRLPRPRPRPHQYPRP
  shrunken log2 fold change: -0.259

## RRIRFRPPRLPRPRPRPHLPPRP
  shrunken log2 fold change: -0.0118

## RRIRPRPPRLPRPRPRPHEGPRP
  shrunken log2 fold change: 0.0172

## RRIRKRPPRLPRPRPRPACWPRP
  shrunken log2 fold change: 0.96

## RRIRQRPPRLPRPRPRPTEAPRP
  shrunken log2 fold change: -0.0735

## RRIRYRPPRLPRPRPRPPDVPRP
  shrunken log2 fold change: -0.0764

## RRIRYRPPRLPRPRPRPREVPRP
  shrunken log2 fold change: 0.00495

## RRIRARPPRLPRPRPRPFVFPRP
  shrunken log2 fold change: 0.166

## RRIRNRPPRLPRPRPRPIMTPRP
  shrunken log2 fold change: -0.269

## RRIRGRPPRLPRPRPRPFHIPRP
  shrunken log2 fold change: -0.14

## RRIRGRPPRLPRPRPRPPWWPRP
  shrunken log2 fold change: 0.953

## RRIRVRPPRLPRPRPRPMAQPRP
  shrunken log2 fold change: 0.149

## RRIRERPPRLPRPRPRPTMIPRP
  shrunken log2 fold change: -0.597

## RRIRFRPPRLPRPRPRPCKQPRP
  shrunken log2 fold change: 0.00386
